What is called Km is the substrate concentration at which the rate is half of its maximum. For orientation: Vmax means the rate approached at saturating substrate. For orientation: kcat means the number of substrate molecules converted per active site and unit of time at saturation. The term kcat/Km denotes the turnover number divided by the Michaelis constant.

Data set [1] deals with CO[C@H](C)[C@](O)(C(=O)OCC1=CCN2CC[C@H](O)[C@@H]12)C(C)C. As to the kind of experiment: purified protein. It is filed as biochemical, Zonocerus variegatus. The following applies: 0.2 mM NADPH, 100 mM glycine/NaOH pH 9, 37°C. The text has this:
(§1) photometric or radioassay N-oxygenation, initial rates on ZvPNO

Data set [2] has as its system C[C@H]1C(=O)O[C@@H]2CCN3CC=C(COC(=O)[C@](C)(O)[C@]1(C)O)[C@H]23. As to the kind of experiment: purified protein. It is filed as biochemical, Zonocerus variegatus. The note with it: 0.2 mM NADPH, 100 mM glycine/NaOH pH 9, 37°C.
From the text: as §1

Data set [3] deals with C/C=C1/C[C@@H](C)[C@@](C)(O)C(=O)OCC2=CCN3CC[C@@H](OC1=O)[C@@H]23. As to the kind of experiment: purified protein. It is filed as biochemical, Zonocerus variegatus. The note with it: 0.2 mM NADPH, 100 mM glycine/NaOH pH 9, 37°C.
From the text: as §1

The test system of data set [4] is CN1[C@@H]2CC[C@H]1CC(OC(=O)C(CO)c1ccccc1)C2. Briefly: purified protein. The note with it: 0.2 mM NADPH, 100 mM glycine/NaOH pH 9, 37°C.
For data set [5], the target named is T1, ZvPNO (Zonocerus variegatus, UniProt L0N8S9).
T1 construct: gene pno; full ORF (1242 bp, 47,793 Da subunit), no signal peptide predicted, C-terminal His6, pET28a, E. coli BL21(DE3), Ni-NTA; homodimer (91,200 Da)
The format is biochemical. The note with it: 0.2 mM NADPH; 100 mM glycine/NaOH pH 9; 37°C.
From the text: as §1

Turning to ZvPNO (Zonocerus variegatus), the Km in data set [1] worked out at 263.89 ± 10.06 µM; in data set [2], 11.93 ± 0.76 µM; in data set [3] it was 1.08 ± 0.07 µM; in data set [4], 9.83 ± 1.04 µM. For the same substance, the maximum rate (Vmax) in data set [1] amounted to 0.149 µmol/min/mg; in data set [2], 1.2 µmol/min/mg; in data set [3], 1.24 µmol/min/mg; in data set [4], 0.461 µmol/min/mg. For the same substance, the kcat in data set [1] is 0.12 s⁻¹; in data set [2] it was 0.96 s⁻¹; in data set [3], 0.99 s⁻¹; in data set [4] it was 0.37 s⁻¹. The kcat/Km is 454 M⁻¹ s⁻¹ in data set [1], 80500 M⁻¹ s⁻¹ in data set [2], 917000 M⁻¹ s⁻¹ in data set [3] and 37600 M⁻¹ s⁻¹ in data set [4].
In the case of phalaenopsine, in data set [5], the Km came to 838 ± 77.4 µM.

The record behind these values is publication PMC3282741, “Independent Recruitment of a Flavin-Dependent Monooxygenase for Safe Accumulation of Sequestered Pyrrolizidine Alkaloids in Grasshoppers and Moths” (PLoS ONE, 2012).
